# Measurements: patent US11433139B2, “Peptide vaccines against interleukin-31” (Zoetis Services LLC, priority 2018, dated 2022)
# Where no end group is shown, it is not given here.
# Tests used:
# [1] = test system: full length feline IL-31; assay: Cat serology study, serum titers by indirect ELISA to feline IL-31; format: in vivo; settings: laboratory cats, 10 μg/dose s.c. days 0, 28, 56, Bay R1005 and CpG adjuvant mixture
# Experimental: 2.9. Serum titers to IL-31 following immunization of laboratory cats with IL-31 feline and equine mimotopes and full length feline IL-31 protein A serology study was performed using laboratory cats like the study design described herein in section 2.3 however in this study feline and equine mimotopes were compared. Laboratory cats were subcutaneously administered the conjugated IL-31 mimotopes adjuvanted with a mixture including the glycolipid adjuvant Bay R1005 (N-(2-Deoxy-2-L-leucylamino-β-D-glucopyranosyl)-N-octadecyldodecanoylamidehydroacetate) as well as CpG oligonucleotides. A control group was included containing CRM-197 conjugated feline IL-31 (SEQ ID NO: 157; Feline_IL31_wildtype), the corresponding nucleotide sequence for which is (SEQ ID NO: 158; Feline_IL-31_wildtype) in an adjuvant mixture including the glycolipid adjuvant Bay R1005 (N-(2-Deoxy-2-L-leucylamino-β-D-glucopyranosyl)-N-octadecyldodecanoylamidehydroacetate) as well as CpG oligonucleotides. (T01). 10 μg/dose of each adjuvanted mimotope or control was administered subcutaneously on days 0, 28, and 56 (0.5 ml of a 20 μg/ml solution). Blood for serum was taken on day −14, 0 (pre-dose), 28 (pre-dose), 42, 56 (pre-dose), 70, and 84. In addition, on days 35 and 63, approximately 40 mls of blood was collected from each animal into lithium heparin tubes and processed for PBMC isolation using a standard method. […]
# [2] = test system: mAb ZTS-361; assay: Peptide block of mAb ZTS-361 inhibition of IL-31 mediated STAT3 phosphorylation in feline FCWF-4 macrophages; format: cell-based
# [3] = test system: full length canine IL-31; assay: Dog immunogenicity study, serum titers by indirect ELISA to canine IL-31; format: in vivo; settings: beagle dogs, 10 μg/dose s.c. days 0, 28, 56, ZA-01 adjuvant; maximum dilution 1:50,000
# Description: (§1) An immunogenicity study was undertaken to assess the ability of CRM-197-conjugated IL-31 15H05 mimotopes to generate an epitope-specific immune response driven towards the relevant region on the IL-31 protein where antibody 15H05 binds and neutralizes the cytokines ability to activate the IL-31Ra:OSMR co-receptor. The study design is depicted in FIG. 14. Purebred male beagle dogs were subcutaneously administered the conjugated IL-31_15H05 mimotopes adjuvanted with ZA-01. […] Control groups were included containing ZA-01 adjuvant CRM-197 alone (T01) and CRM-197 conjugated feline IL-31 (SEQ ID NO: 159; Feline_IL-31_E_coli), the corresponding nucleotide sequence for which is (SEQ ID NO: 160; Feline_IL-31_E_coli) in ZA-01 (T02). 10 μg/dose of each adjuvanted mimotope or control was administered subcutaneously on days 0, 28, and 56 (0.5 ml of a 20 μg/ml solution). Blood for serum was taken on day 0 (pre-dose), 7, 12, 28 (pre-dose) 35, 42, 49, 56 (pre-dose), 63, 70, 77, and 84. In addition, on days 35 and 84, approximately 40 mls of blood was collected from each animal into lithium heparin tubes and processed for PBMC isolation using a standard method. […]
# (§2) Serum titers from each study day indicated in section 2.3 above were assessed for each animal. Titers were determined using an indirect ELISA where a full length IL-31 protein was used as the capture material for each respective assay. […]
# [4] = test system: full length feline IL-31 protein; assay: Dog immunogenicity study, serum titers by indirect ELISA to feline IL-31; format: in vivo, canine; settings: beagle dogs, 10 μg/dose s.c. days 0, 28, 56, ZA-01 adjuvant; maximum dilution 1:50,000
# Description: as §1, §2
# [5] = test system: full length equine IL-31; assay: Dog immunogenicity study, serum titers by indirect ELISA to equine IL-31; format: in vivo; settings: beagle dogs, 10 μg/dose s.c. days 0, 28, 56, ZA-01 adjuvant
# Description: as §1, §2
# [6] = test system: full length human IL-31; assay: Dog immunogenicity study, serum titers by indirect ELISA to human IL-31; format: in vivo, canine; settings: beagle dogs, 10 μg/dose s.c. days 0, 28, 56, ZA-01 adjuvant
# Description: as §1, §2
# [7] = Pharmacokinetic profile of canine IL-31 in dogs; format: in vivo, dog; settings: subcutaneous dose of 1.75 μg/kg, within the first hour
# Experimental: A recent study was performed to determine serum IL-31 levels in cats with a presumptive diagnosis of allergic dermatitis (AD) from several different geographic regions in the USA. […] To understand the levels of canine IL-31 in a previous model development study, the pharmacokinetic profile of canine IL-31 was analyzed in dogs following administration of a subcutaneous dose of 1.75 μg/kg. […] Based on these findings it is reasonable to believe that an intravenous dose of 0.5 μg/kg feline IL-31 used in this feline model will result in a circulating amount that is far excessive to that observed in the naturally occurring disease state for dogs and cats.
# [8] = Stability of cIL-31 following dialysis into PBS; format: physicochemical
# Description: The Interleukin 31 protein varies in amino acid sequence conservation among homologous species (FIGS. 1A and 1B) but is believed to have common structural architecture with other members of the type I cytokine family (Boulay et al. 2003, Immunity. August; 19(2):159-632003; Dillon et al. 2004 Nat Immunol. July; 5(7):752-60). This up-down bundle topology is significant to the mode of receptor recognition shared by these cytokines (Dillon et al. supra, Cornelissen et al. 2012 Eur J Cell Biol. June-July; 91(6-7):552-66). With variation in IL-31 protein sequence identities between different species, it is not possible to predict if antibodies raised against one species will cross-react with others given different epitope propensities and local amino acid compositions. As a consequence, multiple forms of IL-31 protein were considered for this work representing multiple species and expression systems. The canine IL-31 protein (cIL-31) was produced to use as an immunogen and a reagent to test affinity and potency of antibody hits. […] Protein concentration was determined using a bicinchoninic assay (BCA assay) with Bovine Serum Albumin (BSA) as a standard (ThermoFisher Scientific, Inc., Rockford, Ill.). […]
# Chain of mAb ZTS-361 (as listed by the source): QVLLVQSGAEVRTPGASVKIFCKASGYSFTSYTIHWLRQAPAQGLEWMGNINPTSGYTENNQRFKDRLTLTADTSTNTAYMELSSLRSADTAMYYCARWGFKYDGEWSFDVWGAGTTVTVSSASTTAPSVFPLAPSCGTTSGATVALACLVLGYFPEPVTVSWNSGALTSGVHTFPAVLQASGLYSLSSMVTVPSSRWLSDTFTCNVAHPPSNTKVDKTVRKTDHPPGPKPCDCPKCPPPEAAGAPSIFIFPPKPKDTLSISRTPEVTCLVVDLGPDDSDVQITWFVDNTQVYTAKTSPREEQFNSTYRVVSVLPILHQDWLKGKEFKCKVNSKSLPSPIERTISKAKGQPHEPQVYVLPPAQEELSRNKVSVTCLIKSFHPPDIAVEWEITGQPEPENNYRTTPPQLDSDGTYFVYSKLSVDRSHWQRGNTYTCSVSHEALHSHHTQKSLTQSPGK
# Chain of mAb ZTS-361 (as listed by the source): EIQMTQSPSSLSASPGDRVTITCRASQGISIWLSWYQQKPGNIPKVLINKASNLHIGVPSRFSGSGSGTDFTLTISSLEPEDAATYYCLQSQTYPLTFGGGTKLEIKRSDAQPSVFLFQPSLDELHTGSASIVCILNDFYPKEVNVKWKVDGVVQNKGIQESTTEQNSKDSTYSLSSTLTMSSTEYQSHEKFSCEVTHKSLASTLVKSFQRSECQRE
# Chain of full length equine IL-31 (as listed by the source): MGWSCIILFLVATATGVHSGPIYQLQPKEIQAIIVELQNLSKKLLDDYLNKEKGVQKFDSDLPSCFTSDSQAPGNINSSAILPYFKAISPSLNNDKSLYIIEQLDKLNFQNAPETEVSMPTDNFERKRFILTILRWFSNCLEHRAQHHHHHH
molecule,measurement,setting,value
"constrained feline IL-31 15H05 mimotope, N-AKVSMPADNFERKNFILT-C plus N and C terminal Cysteines, mT2a (CAKVSMPADNFERKNFILTC; also: constrained via terminal cysteines, mode not given here) [ZTS-563]",feline antibody titers to full length feline IL-31,[1],modest response
same,"IC50, conjugated peptide","[2]; CRM197 conjugated, co-incubated 1 hour with 0.2 μM mAb ZTS-361, FCWF-4 cells",3.384 µg/mL
same,decline of potency following conjugation,[2]; conjugated vs unconjugated,approximately 3 fold
"feline IL-31 CRM: CRM-197 conjugated feline IL-31 (SEQ ID NO: 159; Feline_IL-31_E_coli), control group T02 (conjugate, conjugated to CRM-197 carrier; Amino acid sequence representing feline IL-31 protein with N-terminal His tag) MRGSHHHHHHGSSHMAPAHRLQPSDIRKIILELRPMSKGLLQDYLKKEIGLPESNHSSLPCLSSDSQLPHINGSAILPYFRAIRPLSDKNTIDKIIEQLDKLKFQREPEAKVSMPADNFERKNFILAVLQQFSACLEHVLQSLNSGPQ",canine antibody titers to full length canine IL-31,[3],transient CRAR
same,canine antibody titers to full length feline IL-31,[4],moderate and sustained antibody response
same,canine antibody titers (CRAR) to full length equine IL-31,[5],negligible
same,canine antibody titers (CRAR) to full length human IL-31,[6],minor
"canine IL-31: recombinant canine IL-31 protein (SEQ ID NO: 155) produced in CHO cells (protein, listed as Canis familiaris) MLSHTGPSRFALFLLCSMETLLSSHMAPTHQLPPSDVRKIILELQPLSRGLLEDYQKKETGVPESNRTLLLCLTSDSQPPRLNSSAILPYFRAIRPLSDKNIIDKIIEQLDKLKFQHEPETEISVPADTFECKSFILTILQQFSACLESVFKSLNSGPQ","peak plasma levels, maximum",[7],about 30 ng/ml
same,"stability, proteolysis","[8]; PBS, several days at 4° C.",no proteolysis was observed
same,"stability, precipitation",[8]; following dialysis into PBS,No precipitation was observed
